This data set concerns the molecule itself. The data set is described as follows: SEC-MALS; size exclusion chromatography coupled with multiangle light scattering on FlcD without a His6-tag.

Broadly, the stoichiometry N is a count of units in the complex or per binding partner.

B1: FlcD without a His6-tag (FlcD_(tagless)) (enzyme, Pseudomonas aeruginosa)
chain: MNTRNFSLPQLQNLPIEEARIVADALAVHATSRQIDSAASKLAALAEAGLKGDRQAYAAYQQLLYVLSLSDDVATAQTRRWLARAIYRVEERFMPAADLSRALSEEDFQKRLEQEIAAQSRERHPMSQYVFSGSASRAQLQVFLRHQWFRTFRLYRDAADLLVNLTDVDEAAALARYLYGELGEEDEKGSHPRLLAKLLEAIGLEADFQAVSTMPEEIAYLNNRARAFRHAEVGWGLAVFYITELVVPGNHEKLYRALLQAGLSEDQAEYYKVHISLVPPRAKREWQLIARRIPDVQFQNAFLTSLSQHFRVERAYYDAIWEEMQSVK
notes: FlcD, heme oxygenase-like domain-containing oxidase (HDO) of Pseudomonas aeruginosa, without a His6-tag; see the Supporting Information PDF
Consider B1, for which the “stoichiometry N” value was determined as 2.
